The source of these data is paper doi:10.1101/2023.09.20.558696.

Test in all cases: co-IP
Assay [1] addresses LtPNUTS R94A, Pd-tagged (L. tarentolae).
Assay [2] has as its target LtPNUTS D101A, Pd-tagged (L. tarentolae).
In assay [3] the target is LtPNUTS L111A, Pd-tagged (L. tarentolae).
The target of assay [4] is LtPNUTS V97A, Pd-tagged (L. tarentolae).
In assay [5] the target is LtPP1-8e 263-265A, Pd-tagged (L. tarentolae).
For assay [6], the target named is LtPP1-8e 109-134Δ, Pd-tagged (L. tarentolae).
Assay [7] has as its target LtPP1-8e 109-114A, Pd-tagged (L. tarentolae).
The target in assay [8] is LtPP1-8e CΔ11, Pd-tagged (L. tarentolae).
Assay [9] addresses LtPP1-8e 359-362A, Pd-tagged (L. tarentolae).
The target in assay [10] is LtPP1-8e 260LP261 to alanine, Pd-tagged (L. tarentolae).
For assay [11], the target named is LtPP1-8e I217A, Pd-tagged (L. tarentolae).
Assay [12] concerns the target LtPP1-8e F305A, Pd-tagged (L. tarentolae).
The target of assay [13] is LtPP1-8e D290A, Pd-tagged (L. tarentolae).
Assay [14] addresses LtPP1-8e D292A, Pd-tagged (L. tarentolae).
In assay [15] the target is LtPP1-8e I360A, Pd-tagged (L. tarentolae).
The target of assay [16] is LtPP1-8e 310DHK312 to alanine, Pd-tagged (L. tarentolae).
For assay [17], the target named is LtPP1-8e CΔ23, Pd-tagged (L. tarentolae).
For assay [18], the target named is LtPP1-8e 354-358A, Pd-tagged (L. tarentolae).

On to “LtPP1-8e, endogenously HA-tagged (enzyme)”, for which the reduction of co-IP against WT PNUTS in assay [1] worked out at 50%; in [3] it was 80%. The decrease of co-IP against WT PNUTS in assay [2] worked out at 80%. In assay [4], the fold decrease of co-IP against WT PNUTS amounted to 5 fold.
With “LtPNUTS, endogenously HA-tagged (natural protein)”, the reduction of co-IP against WT PP1-8e is 90% in assay [5]; 80% in assay [6]; 80% in assay [7]; 30% in assay [8]; 80% in [9]; 80% in assay [10]. The reduction of co-IP against WT PP1-8e in assay [11] was determined as 50%; in assay [12] it was 80%; in assay [13] it was 50%; in assay [14], 60%; in assay [15], 80%; in assay [18], 50%. In [16], this substance yielded a decrease of co-IP against WT PP1-8e of 20%. In assay [17], this substance came in with a loss of co-IP against WT PP1-8e of 80%.
